For one assay, the target named is VEGF (R&D systems) (UniProt P15692-4 27-191, limits assumed). Nature of the assay: SPR (Biacore T100), CM5 chip, VEGF; format unclear in the text. The protocol:
An examination on whether the 8 anti-c-Met/anti-VEGF bispecific antibodies prepared in Example 2 maintains binding affinity to VEGF was conducted using Biacore T100(GE). VEGF (R&D systems) immobilized on the surface of CM5 chip (#BR-1005-30, GE) by amino coupling according to the manufacturer's instructions. About 90˜120 RU of the anti-c-Met/anti-VEGF bispecific antibody was captured, and […] was injected thereto at various concentrations. Then, a solution containing 1M NaCl and 5 mM NaOH was injected thereto to regenerate the surface. The obtained data were fitted using BlAevaluation software (GE Healthcare, Biacore T100 evaluation software), to measure the binding affinity to VEGF.
(In general: In SPR one partner is held on a chip, and binding of the other changes the refractive index at the surface.)

Assay [1] concerns the target T1, human c-Met/Fc fusion protein (R&D Systems) (human, UniProt P08581 25-932).
T1 construct: Bought reagent; also called c-Met-Fc (#358-MT/CF, R&D Systems); human c-Met/Fc protein; not shown: Fc part of the bought fusion protein
Nature of the assay: SPR (Biacore T100), bispecific captured by human Fab binder on CM5 chip, c-Met-Fc injected. How it is done:
An examination on whether the anti-c-Met/anti-VEGF bispecific antibody maintains binding affinity to c-Met was conducted using Biacore T100(GE). A human Fab binding agent (GE Healthcare) was immobilized onto a CM5 chip (#BR-1005-30, GE) according to the manufacturer's instructions. About 90˜120 RU of the anti-c-Met/anti-VEGF bispecific antibody was captured, and c-Met-Fc (#358-MT/CF, R&D Systems) was injected thereto at various concentrations. Then, 10 mM Glycine-HCl (pH 2.1) solution was injected thereto to regenerate the surface. The obtained data were fitted using BlAevaluation software (GE Healthcare, Biacore T100 evaluation software), to measure the binding affinity to c-Met.

The target of assay [2] is T1, human c-Met/Fc fusion protein (R&D …). Briefly: ELISA, human c-Met/Fc fusion protein coated on plate, hybridoma culture, anti-mouse IgG-HRP. How it is done: Human c-Met/Fc fusion protein was seeded in an amount of 50 μL (2 μg/mL)/well to microtiter plates and allowed to adhere to the surface of each well. The antibody that remained unbound was removed by washing.
The hybridoma cell culture obtained in Reference Example 1.1.2 was added in an amount of 50 μL to each well of the plates and incubated for 1 hour. The cells remaining unreacted were washed out with a sufficient amount of Tris-buffered saline and Tween 20 (TBST). Goat anti-mouse IgG-horseradish peroxidase (HRP) was added to the plates and incubated for 1 hour at room temperature. The plates were washed with a sufficient amount of TBST, followed by reacting the peroxidase with a substrate (OPD). Absorbance at 450 nm was measured on an ELISA reader.

VEGF (R&D systems), sequence (P15692 other isoform, or with tags, fused parts or gaps limits assumed): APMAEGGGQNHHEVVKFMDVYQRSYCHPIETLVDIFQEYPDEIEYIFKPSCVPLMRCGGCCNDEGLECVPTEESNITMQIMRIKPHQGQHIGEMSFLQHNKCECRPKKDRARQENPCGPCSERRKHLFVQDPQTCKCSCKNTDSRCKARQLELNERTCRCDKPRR
T1 sequence (P08581 25-932 limits assumed): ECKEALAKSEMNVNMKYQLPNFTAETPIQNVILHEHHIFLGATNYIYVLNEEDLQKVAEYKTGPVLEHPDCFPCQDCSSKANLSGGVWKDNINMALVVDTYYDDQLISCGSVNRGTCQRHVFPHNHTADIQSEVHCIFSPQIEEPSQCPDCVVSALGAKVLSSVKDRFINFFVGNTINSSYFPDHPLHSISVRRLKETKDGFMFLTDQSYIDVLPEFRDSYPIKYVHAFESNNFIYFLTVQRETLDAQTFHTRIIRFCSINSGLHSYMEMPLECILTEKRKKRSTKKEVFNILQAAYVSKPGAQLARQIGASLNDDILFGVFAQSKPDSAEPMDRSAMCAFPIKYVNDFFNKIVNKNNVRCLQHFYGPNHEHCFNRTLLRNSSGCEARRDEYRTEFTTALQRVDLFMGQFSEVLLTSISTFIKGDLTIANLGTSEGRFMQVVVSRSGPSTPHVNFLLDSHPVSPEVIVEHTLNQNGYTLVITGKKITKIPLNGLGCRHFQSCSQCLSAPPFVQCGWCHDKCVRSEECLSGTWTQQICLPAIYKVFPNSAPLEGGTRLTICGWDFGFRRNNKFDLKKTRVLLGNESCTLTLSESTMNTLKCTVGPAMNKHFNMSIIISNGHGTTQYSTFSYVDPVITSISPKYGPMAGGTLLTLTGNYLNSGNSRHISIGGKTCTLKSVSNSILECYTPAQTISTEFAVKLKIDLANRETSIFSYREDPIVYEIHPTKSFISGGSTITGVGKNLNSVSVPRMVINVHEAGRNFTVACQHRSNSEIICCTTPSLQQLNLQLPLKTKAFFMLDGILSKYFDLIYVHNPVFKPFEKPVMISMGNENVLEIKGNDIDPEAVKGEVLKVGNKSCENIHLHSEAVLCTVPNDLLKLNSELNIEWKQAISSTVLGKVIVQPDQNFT

B1: MV-20 anti-c-Met/anti-VEGF bispecific antibody (bispecific antibody, human IgG2, kappa)
heavy: EVQLVESGGGLVQPGGSLRLSCAASGFTFTDYYMSWVRQAPGKGLEWLGFIRNKANGYTTEYSASVKGRFTISRDNSKNTLYLQMNSLRAEDTAVYYCARDNWFAYWGQGTLVTVSSASTKGPSVFPLAPCSRSTSESTAALGCLVKDYFPEPVTVSWNSGALTSGVHTFPAVLQSSGLYSLSSVVTVPSSNFGTQTYTCNVDHKPSNTKVDKTVERKCCVECPPCPAPPVAGPSVFLFPPKPKDTLMISRTPEVTCVVVDVSHEDPEVQFNWYVDGVEVHNAKTKPREEQFNSTFRVVSVLTVVHQDWLNGKEYKCKVSNKGLPAPIEKTISKTKGQPREPQVYTLPPSREEMTKNQVSLTCLVKGFYPSDIAVEWESNGQPENNYKTTPPMLDSDGSFFLYSKLTVDKSRWQQGNVFSCSVMHEALHNHYTQKSLSLSPGKGGGGSGGGGSEVQLLESGGGLVQPGGSLRLSCAASGFTFSNYDMSWVRQAPGKGLEWVSLISHGGGNIYYADSVKGRFTISRDNSKNTLYLQMNSLRAEDTAVYYCARVPVMCTNHWCSYANGMDVWGQGTLVTVSSGGGGSGGGGSGGGGSQSVLTQPPSASGTPGQRVIISCSASSSNIGSNAVYWYQQLPGTAPKLLIYSDNQRPSGVPDRFSGSKSGTSASLAISGLRSEDEADYYCGSWDYSLSAYVFGGGTKLTVLG
light: DIQMTQSPSSLSASVGDRVTITCKSSQSLLASGNQNNYLAWYQQKPGKAPKMLIIWASTRVSGVPSRFSGSGSGTDFTLTISSLQPEDFATYYCQQSYSRPYTFGQGTKVEIKRTVAAPSVFIFPPSDEQLKSGTASVVCLLNNFYPREAKVQWKVDNALQSGNSQESVTEQDSKDSTYSLSSTLTLSKADYEKHKVYACEVTHQGLSSPVTKSFNRGEC
In the case of B1, the Kd (in general, a measure of binding affinity in units of concentration) with VEGF (R&D systems) was found to be 4.43 nM; in assay [1] it was 0.04 nM.

B2: MV-21 anti-c-Met/anti-VEGF bispecific antibody (bispecific antibody, human IgG2, kappa)
heavy: EVQLVESGGGLVQPGGSLRLSCAASGFTFTDYYMSWVRQAPGKGLEWLGFIRNKANGYTTEYSASVKGRFTISRDNSKNTLYLQMNSLRAEDTAVYYCARDNWFAYWGQGTLVTVSSASTKGPSVFPLAPCSRSTSESTAALGCLVKDYFPEPVTVSWNSGALTSGVHTFPAVLQSSGLYSLSSVVTVPSSNFGTQTYTCNVDHKPSNTKVDKTVERKCCVECPPCPAPPVAGPSVFLFPPKPKDTLMISRTPEVTCVVVDVSHEDPEVQFNWYVDGVEVHNAKTKPREEQFNSTFRVVSVLTVVHQDWLNGKEYKCKVSNKGLPAPIEKTISKTKGQPREPQVYTLPPSREEMTKNQVSLTCLVKGFYPSDIAVEWESNGQPENNYKTTPPMLDSDGSFFLYSKLTVDKSRWQQGNVFSCSVMHEALHNHYTQKSLSLSPGKGGGGSGGGGSEVQLLESGGGLVQPGGSLRLSCAASGFTFSGYAMSWVRQAPGKGLEWVSGISHDGGNTYYADSVKGRFTISRDNSKNTLYLQMNSLRAEDTAVYYCARDRRKGPSTEFDYWGQGTLVTVSSGGGGSGGGGSGGGGSQSVLTQPPSLSGTPGQRVTISCTGSSSNIGSNSVSWYQQLPGTAPKLLIYDDNNRPSGVPDRFSGSKSGTSASLAISGLRSEDEADYYCGAWDYSLSAYVFGGGTKLTVLG
light: DIQMTQSPSSLSASVGDRVTITCKSSQSLLASGNQNNYLAWYQQKPGKAPKMLIIWASTRVSGVPSRFSGSGSGTDFTLTISSLQPEDFATYYCQQSYSRPYTFGQGTKVEIKRTVAAPSVFIFPPSDEQLKSGTASVVCLLNNFYPREAKVQWKVDNALQSGNSQESVTEQDSKDSTYSLSSTLTLSKADYEKHKVYACEVTHQGLSSPVTKSFNRGEC
As to B2, the Kd with VEGF (R&D systems) is 8.27 nM; in assay [1] it was 0.04 nM.

B3: MV-22 anti-c-Met/anti-VEGF bispecific antibody (bispecific antibody, human IgG2, kappa)
heavy: EVQLVESGGGLVQPGGSLRLSCAASGFTFTDYYMSWVRQAPGKGLEWLGFIRNKANGYTTEYSASVKGRFTISRDNSKNTLYLQMNSLRAEDTAVYYCARDNWFAYWGQGTLVTVSSASTKGPSVFPLAPCSRSTSESTAALGCLVKDYFPEPVTVSWNSGALTSGVHTFPAVLQSSGLYSLSSVVTVPSSNFGTQTYTCNVDHKPSNTKVDKTVERKCCVECPPCPAPPVAGPSVFLFPPKPKDTLMISRTPEVTCVVVDVSHEDPEVQFNWYVDGVEVHNAKTKPREEQFNSTFRVVSVLTVVHQDWLNGKEYKCKVSNKGLPAPIEKTISKTKGQPREPQVYTLPPSREEMTKNQVSLTCLVKGFYPSDIAVEWESNGQPENNYKTTPPMLDSDGSFFLYSKLTVDKSRWQQGNVFSCSVMHEALHNHYTQKSLSLSPGKGGGGSGGGGSEVQLLESGGGLVQTGGSLRLSCAASGFTFSDYAMSWVRQAPGKGLEWVSWIYPGDSSIYYADSVKGRFTISRDNSKNTLYLQMNSLRAEDTAVYYCARLLSIDQAQLHYYYDAMDVWGQGTLVTVSSGGGGSGGGGSGGGGSQSVLTQPPSPSGTPGQRVTISCTGSSSNIGNYYVYWYQQLPGTAPKLLIYANSHRPSGVPDRFSGSKSGTSASLAISGLRSEDEADYYCGSWDDSLSAYVFGGGTKLTVLG
light: DIQMTQSPSSLSASVGDRVTITCKSSQSLLASGNQNNYLAWYQQKPGKAPKMLIIWASTRVSGVPSRFSGSGSGTDFTLTISSLQPEDFATYYCQQSYSRPYTFGQGTKVEIKRTVAAPSVFIFPPSDEQLKSGTASVVCLLNNFYPREAKVQWKVDNALQSGNSQESVTEQDSKDSTYSLSSTLTLSKADYEKHKVYACEVTHQGLSSPVTKSFNRGEC
Turning to B3, the Kd in the assay with VEGF (R&D systems) was 2.2 nM; in assay [1], 0.06 nM.

B4: AbF46, mouse monoclonal antibody to c-Met (antibody, V domains shown)
VH: EVKLVESGGGLVQPGGSLRLSCATSGFTFTDYYMSWVRQPPGKALEWLGFIRNKANGYTTEYSASVKGRFTISRDNSQSILYLQMDTLRAEDSATYYCARDNWFAYWGQGTLVTVSA
VL: DILMTQSPSSLTVSAGEKVTMSCKSSQSLLASGNQNNYLAWHQQKPGRSPKMLIIWASTRVSGVPDRFIGSGSGTDFTLTINSVQAEDLAVYYCQQSYSAPLTFGAGTKLELK
notes: Tested as hybridoma culture supernatant in the selection ELISA; also called antibody of hybridoma KCLRF-BP-00220
As for B4, the binding result in assay [2] was “binds”.

The record behind these values is US20160090427A1 (SAMSUNG ELECTRONICS, published 2016).
